Assay results as given in publication PMC6179375 (Science Advances, 2018).
Where a chain is given by its changes, count along the chain named.

Biological target: T1, Ac-(NPNA)2-NH2 peptide (Plasmodium falciparum (synthetic repeat …))
T1 construct: two NPNA repeats of the central repeat region of P. falciparum circumsporozoite protein (PfCSP); also called (NPNA)2 peptide; source: synthetic peptide, bought: InnoPep Inc. (>98% purity)
T1 chain: Ac-NPNANPNA-NH2
Test: ITC; MicroCal Auto-iTC200; peptide 134 uM in the syringe, Fab in the cell (9.2 uM Fab311, 9.6 uM Fab311R); Dulbecco's PBS; 25 °C; triplicate experiments, 16 injections
Conditions: both partners purified

B1: Fab311 (Fab of monoclonal antibody mAb311) (Fab, V domains shown)
VH: QVQLVESGGGVVPPGRSLRLSCATSGFTFSNYGMHWVRQAPGKGLEWVAIIWYDGSRNFYAASVEGRFTISRDNSKNTLYLQMNSLRVEDTAVYYCARAAYYDTSGYGDYWGQGTLVTVSS
VL: QSVLTQPPSVSGAPGQTVTISCTGGSSNIGAGYDVHWYQQLPGTAPKLLIYGNINRPSGVPDRFSGSKSGTSASLAITGLQAEDEADYYCQSYDRRLSGSWVFGGGTKLTVL
notes: heavy chain of Fab311; cryo-EM models 6MHG and 6MB3 hold the variable domains only; germline IGHV3-33*01; light chain of Fab311; germline IGLV1-40*01; human antibody isolated from an RTS,S/AS01B vaccinee; source: FreeStyle 293-F cells, purified as previously described (15)
Kd: 160 ± 7 nM | stoichiometry N: 1.19 ± 0.04

B2: Fab311R (Fab311 inter-Fab contact residue reverted) (Fab, V domains shown)
VH: B1 VH with N31S, R57N, N58K, E65K
VL: B1 VL with R95S, R96S
notes: the PDB entries hold the parent Fab311; also called germline-reverted Fab311; source: FreeStyle 293-F cells
Kd: 135 ± 56 nM | stoichiometry N: 1.21 ± 0.03
